Values joined by “and” are separate entries in the source; they are usually repeats but may differ in a detail not shown here. Equal entries are not always repeated.
T1: C1r-CCP2-SP, recombinant autoactivated domain truncation of human C1r (human, UniProt P00736 375-703)
T1 sequence: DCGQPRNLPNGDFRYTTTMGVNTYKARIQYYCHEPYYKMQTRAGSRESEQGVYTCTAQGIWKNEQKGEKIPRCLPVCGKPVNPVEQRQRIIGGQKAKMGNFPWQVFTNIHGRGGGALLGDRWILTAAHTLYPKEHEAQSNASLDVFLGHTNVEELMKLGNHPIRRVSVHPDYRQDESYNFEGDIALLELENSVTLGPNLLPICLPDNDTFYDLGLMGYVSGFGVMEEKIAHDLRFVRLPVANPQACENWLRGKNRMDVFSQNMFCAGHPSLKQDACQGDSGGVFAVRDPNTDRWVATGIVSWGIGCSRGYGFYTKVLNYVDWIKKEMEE

B1: BBK32-C (C-terminal domain of B. burgdorferi BBK32), wild type (domain or fragment)
chain: SNRYQSYLEGVKYNVDSAIQTITKIYNTYTLFSTKLTQMYSTRLDNFAKAKAKEEAAKFTKEDLEKNFKTLLNYIQVSVKTAANFVYINDTHAKRKLENIEAEIKTLIAKIKEQSNLYEAYKAIVTSILLMRDSLKEVQGIID
B2: BBK32-C K327A (domain or fragment, B. burgdorferi B31, UniProt O50835 206-348, looked up)
chain: SNRYQSYLEGVKYNVDSAIQTITKIYNTYTLFSTKLTQMYSTRLDNFAKAKAKEEAAKFTKEDLEKNFKTLLNYIQVSVKTAANFVYINDTHAKRKLENIEAEIKTLIAKIKEQSNLYEAYAAIVTSILLMRDSLKEVQGIID
B3: BBK32-C K327A-T331A (domain or fragment, B. burgdorferi B31, UniProt O50835 206-348, looked up)
chain: SNRYQSYLEGVKYNVDSAIQTITKIYNTYTLFSTKLTQMYSTRLDNFAKAKAKEEAAKFTKEDLEKNFKTLLNYIQVSVKTAANFVYINDTHAKRKLENIEAEIKTLIAKIKEQSNLYEAYAAIVASILLMRDSLKEVQGIID
B4: BBK32-C L236A (domain or fragment, B. burgdorferi B31, UniProt O50835 206-348, looked up)
chain: SNRYQSYLEGVKYNVDSAIQTITKIYNTYTAFSTKLTQMYSTRLDNFAKAKAKEEAAKFTKEDLEKNFKTLLNYIQVSVKTAANFVYINDTHAKRKLENIEAEIKTLIAKIKEQSNLYEAYKAIVTSILLMRDSLKEVQGIID
B5: BBK32-C L236A-T239A (domain or fragment, B. burgdorferi B31, UniProt O50835 206-348, looked up)
chain: SNRYQSYLEGVKYNVDSAIQTITKIYNTYTAFSAKLTQMYSTRLDNFAKAKAKEEAAKFTKEDLEKNFKTLLNYIQVSVKTAANFVYINDTHAKRKLENIEAEIKTLIAKIKEQSNLYEAYKAIVTSILLMRDSLKEVQGIID
B6: BBK32-C N251A (domain or fragment, B. burgdorferi B31, UniProt O50835 206-348, looked up)
chain: SNRYQSYLEGVKYNVDSAIQTITKIYNTYTLFSTKLTQMYSTRLDAFAKAKAKEEAAKFTKEDLEKNFKTLLNYIQVSVKTAANFVYINDTHAKRKLENIEAEIKTLIAKIKEQSNLYEAYKAIVTSILLMRDSLKEVQGIID
B7: BBK32-C R248A (domain or fragment, B. burgdorferi B31, UniProt O50835 206-348, looked up)
chain: SNRYQSYLEGVKYNVDSAIQTITKIYNTYTLFSTKLTQMYSTALDNFAKAKAKEEAAKFTKEDLEKNFKTLLNYIQVSVKTAANFVYINDTHAKRKLENIEAEIKTLIAKIKEQSNLYEAYKAIVTSILLMRDSLKEVQGIID
B8: BBK32-C R337A (residues 206–354) (domain or fragment, B. burgdorferi B31, UniProt O50835 206-354, looked up)
chain: SNRYQSYLEGVKYNVDSAIQTITKIYNTYTLFSTKLTQMYSTRLDNFAKAKAKEEAAKFTKEDLEKNFKTLLNYIQVSVKTAANFVYINDTHAKRKLENIEAEIKTLIAKIKEQSNLYEAYKAIVTSILLMADSLKEVQGIIDKNGVWY
B9: BBK32-C T239A (domain or fragment, B. burgdorferi B31, UniProt O50835 206-348, looked up)
chain: SNRYQSYLEGVKYNVDSAIQTITKIYNTYTLFSAKLTQMYSTRLDNFAKAKAKEEAAKFTKEDLEKNFKTLLNYIQVSVKTAANFVYINDTHAKRKLENIEAEIKTLIAKIKEQSNLYEAYKAIVTSILLMRDSLKEVQGIID
B10: BBK32-C T242A (domain or fragment, B. burgdorferi B31, UniProt O50835 206-348, looked up)
chain: SNRYQSYLEGVKYNVDSAIQTITKIYNTYTLFSTKLAQMYSTRLDNFAKAKAKEEAAKFTKEDLEKNFKTLLNYIQVSVKTAANFVYINDTHAKRKLENIEAEIKTLIAKIKEQSNLYEAYKAIVTSILLMRDSLKEVQGIID
B11: BBK32-C T242A-Y245A (domain or fragment, B. burgdorferi B31, UniProt O50835 206-348, looked up)
chain: SNRYQSYLEGVKYNVDSAIQTITKIYNTYTLFSTKLAQMASTRLDNFAKAKAKEEAAKFTKEDLEKNFKTLLNYIQVSVKTAANFVYINDTHAKRKLENIEAEIKTLIAKIKEQSNLYEAYKAIVTSILLMRDSLKEVQGIID
B12: BBK32-C T331A (domain or fragment, B. burgdorferi B31, UniProt O50835 206-348, looked up)
chain: SNRYQSYLEGVKYNVDSAIQTITKIYNTYTLFSTKLTQMYSTRLDNFAKAKAKEEAAKFTKEDLEKNFKTLLNYIQVSVKTAANFVYINDTHAKRKLENIEAEIKTLIAKIKEQSNLYEAYKAIVASILLMRDSLKEVQGIID
B13: BBK32-C Y245A (domain or fragment, B. burgdorferi B31, UniProt O50835 206-348, looked up)
chain: SNRYQSYLEGVKYNVDSAIQTITKIYNTYTLFSTKLTQMASTRLDNFAKAKAKEEAAKFTKEDLEKNFKTLLNYIQVSVKTAANFVYINDTHAKRKLENIEAEIKTLIAKIKEQSNLYEAYKAIVTSILLMRDSLKEVQGIID
B14: BBK32-C Y323A (domain or fragment, B. burgdorferi B31, UniProt O50835 206-348, looked up)
chain: SNRYQSYLEGVKYNVDSAIQTITKIYNTYTLFSTKLTQMYSTRLDNFAKAKAKEEAAKFTKEDLEKNFKTLLNYIQVSVKTAANFVYINDTHAKRKLENIEAEIKTLIAKIKEQSNLAEAYKAIVTSILLMRDSLKEVQGIID
B15: BBK32-C Y323A-E324A (domain or fragment, B. burgdorferi B31, UniProt O50835 206-348, looked up)
chain: SNRYQSYLEGVKYNVDSAIQTITKIYNTYTLFSTKLTQMYSTRLDNFAKAKAKEEAAKFTKEDLEKNFKTLLNYIQVSVKTAANFVYINDTHAKRKLENIEAEIKTLIAKIKEQSNLAAAYKAIVTSILLMRDSLKEVQGIID
B16: BBK32-C E324A (domain or fragment, B. burgdorferi B31, UniProt O50835 206-348, looked up)
chain: SNRYQSYLEGVKYNVDSAIQTITKIYNTYTLFSTKLTQMYSTRLDNFAKAKAKEEAAKFTKEDLEKNFKTLLNYIQVSVKTAANFVYINDTHAKRKLENIEAEIKTLIAKIKEQSNLYAAYKAIVTSILLMRDSLKEVQGIID

Molecular target: T1, C1r-CCP2-SP, recombinant autoactivated …
Test: SEC-MALS + other: SEC-SAXS

B1 was tested, and the “stoichiometry N” value was 1.

Molecular target: T1, C1r-CCP2-SP, recombinant autoactivated …
Test: SPR

With B1 the Kd was 450 pM and 780 pM.

B1 was tested, and the koff was 4.5e-05 s⁻¹ and 6.3e-05 s⁻¹.

For B1, the kon was 100000 M⁻¹ s⁻¹ and 81000 M⁻¹ s⁻¹.

First: B2
Second: B3
The Kd of the first is 4.2-fold lower: 120000 ± 50000 pM for the first, 510000 ± 200000 pM for the second. The first binds more tightly here.

B4 and B5 are within 1.5-fold of each other in Kd: 150 pM for the first, 180 pM for the second.

Compared with B6, B7 is 9.5-fold higher in Kd: 610 ± 210 pM for the first, 5800 ± 100 pM for the second. The first binds more tightly here.

Compared with B8, B9 is 4.6-fold lower in Kd: 780 ± 130 pM for the first, 170 pM for the second. The second binds more tightly here.

First: B10
Second: B11
The Kd of the first is 59-fold lower: 960 pM for the first, 57000 ± 100 pM for the second.

Compared with B12, B13 is 1.8-fold higher in Kd: 730 ± 300 pM for the first, 1300 ± 10 pM for the second.

Going from B14 to B15, the Kd rises from 870 ± 60 pM to 480000 ± 51000 pM (550-fold).

Binder B16 has a Kd of 1600 ± 70 pM.

Compared with B2, B3 is 3.5-fold higher in koff: 0.0075 s⁻¹ for the first, 0.026 s⁻¹ for the second.

B4 and B5 are within 1.5-fold of each other in koff: 3.5e-05 s⁻¹ for the first, 4.3e-05 s⁻¹ for the second.

Going from B6 to B7, the koff rises from 0.00011 s⁻¹ to 0.0013 s⁻¹ (12-fold).

First: B8
Second: B9
The koff of the first is 2-fold higher: 8.8e-05 s⁻¹ for the first, 4.4e-05 s⁻¹ for the second.

First: B10
Second: B11
The koff of the first is 120-fold lower: 9.9e-05 s⁻¹ for the first, 0.012 s⁻¹ for the second.

First: B12
Second: B13
The koff of the first is 4.3-fold lower: 8.2e-05 s⁻¹ for the first, 0.00035 s⁻¹ for the second.

Going from B14 to B15, the koff rises from 0.00016 s⁻¹ to 0.046 s⁻¹ (290-fold).

Binder B16 has a koff of 0.00034 s⁻¹.

First: B2
Second: B3
The kon of the first is 2.6-fold higher: 97000 M⁻¹ s⁻¹ for the first, 37000 M⁻¹ s⁻¹ for the second.

B4 and B5 are within 1.5-fold of each other in kon: 230000 M⁻¹ s⁻¹ for the first, 240000 M⁻¹ s⁻¹ for the second.

B6 and B7 are within 1.5-fold of each other in kon: 180000 M⁻¹ s⁻¹ for the first, 220000 M⁻¹ s⁻¹ for the second.

Compared with B8, B9 is 2.4-fold higher in kon: 110000 M⁻¹ s⁻¹ for the first, 260000 M⁻¹ s⁻¹ for the second.

First: B10
Second: B11
The kon of the first is 2.1-fold lower: 100000 M⁻¹ s⁻¹ for the first, 210000 M⁻¹ s⁻¹ for the second.

First: B12
Second: B13
The kon of the first is 2-fold lower: 140000 M⁻¹ s⁻¹ for the first, 280000 M⁻¹ s⁻¹ for the second.

Going from B14 to B15, the kon falls from 180000 M⁻¹ s⁻¹ to 100000 M⁻¹ s⁻¹ (1.8-fold).

B16 was tested, and the kon was 200000 M⁻¹ s⁻¹.
